# From patent publication US20170174733A1
# Like-named read-outs stand apart in the source and are kept apart here.
# How the values were obtained:
# [1] = molecular target: human VEGF (human) (UniProt P15692); test: cell-based or functional assay
# [2] = molecular target: mouse VEGF (mouse) (UniProt Q00731); test: cell-based or functional assay
# [3] = molecular target: rat VEGF (rat) (UniProt P16612); test: cell-based or functional assay
# [4] = molecular target: mouse VEGF (mouse) (UniProt Q00731); test: cell-based or functional assay; remark: listed apart in the source
# [5] = molecular target: rat VEGF (rat) (UniProt P16612); test: cell-based or functional assay; remark: listed apart in the source
# [6] = molecular target: biotinylated VEGF165 (UniProt P15692); test: competition binding ELISA: blocks biotinylated VEGF165 binding to coated VEGFR1-Fc
# biotinylated VEGF165, sequence (P15692 other isoform, or with tags, fused parts or gaps limits assumed): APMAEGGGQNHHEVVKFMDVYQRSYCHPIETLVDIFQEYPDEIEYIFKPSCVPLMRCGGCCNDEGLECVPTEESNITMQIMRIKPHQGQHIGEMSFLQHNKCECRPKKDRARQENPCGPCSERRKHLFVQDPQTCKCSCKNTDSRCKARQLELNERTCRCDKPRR
# [7] = molecular target: biotinylated VEGF165 (UniProt P15692); test: competition binding ELISA: biotinylated VEGF165 premixed with the binder, then on coated VEGFR1-Fc (blocked partner), OD 450 nm
# [8] = molecular target: human VEGF (human) (UniProt P15692); test: cell-based or functional assay; remark: listed apart in the source
# [9] = molecular target: LRP6 on HEK293S cells (human) (UniProt O75581); test: cell-based or functional assay
# LRP6 on HEK293S cells (human), sequence (O75581 20-1613): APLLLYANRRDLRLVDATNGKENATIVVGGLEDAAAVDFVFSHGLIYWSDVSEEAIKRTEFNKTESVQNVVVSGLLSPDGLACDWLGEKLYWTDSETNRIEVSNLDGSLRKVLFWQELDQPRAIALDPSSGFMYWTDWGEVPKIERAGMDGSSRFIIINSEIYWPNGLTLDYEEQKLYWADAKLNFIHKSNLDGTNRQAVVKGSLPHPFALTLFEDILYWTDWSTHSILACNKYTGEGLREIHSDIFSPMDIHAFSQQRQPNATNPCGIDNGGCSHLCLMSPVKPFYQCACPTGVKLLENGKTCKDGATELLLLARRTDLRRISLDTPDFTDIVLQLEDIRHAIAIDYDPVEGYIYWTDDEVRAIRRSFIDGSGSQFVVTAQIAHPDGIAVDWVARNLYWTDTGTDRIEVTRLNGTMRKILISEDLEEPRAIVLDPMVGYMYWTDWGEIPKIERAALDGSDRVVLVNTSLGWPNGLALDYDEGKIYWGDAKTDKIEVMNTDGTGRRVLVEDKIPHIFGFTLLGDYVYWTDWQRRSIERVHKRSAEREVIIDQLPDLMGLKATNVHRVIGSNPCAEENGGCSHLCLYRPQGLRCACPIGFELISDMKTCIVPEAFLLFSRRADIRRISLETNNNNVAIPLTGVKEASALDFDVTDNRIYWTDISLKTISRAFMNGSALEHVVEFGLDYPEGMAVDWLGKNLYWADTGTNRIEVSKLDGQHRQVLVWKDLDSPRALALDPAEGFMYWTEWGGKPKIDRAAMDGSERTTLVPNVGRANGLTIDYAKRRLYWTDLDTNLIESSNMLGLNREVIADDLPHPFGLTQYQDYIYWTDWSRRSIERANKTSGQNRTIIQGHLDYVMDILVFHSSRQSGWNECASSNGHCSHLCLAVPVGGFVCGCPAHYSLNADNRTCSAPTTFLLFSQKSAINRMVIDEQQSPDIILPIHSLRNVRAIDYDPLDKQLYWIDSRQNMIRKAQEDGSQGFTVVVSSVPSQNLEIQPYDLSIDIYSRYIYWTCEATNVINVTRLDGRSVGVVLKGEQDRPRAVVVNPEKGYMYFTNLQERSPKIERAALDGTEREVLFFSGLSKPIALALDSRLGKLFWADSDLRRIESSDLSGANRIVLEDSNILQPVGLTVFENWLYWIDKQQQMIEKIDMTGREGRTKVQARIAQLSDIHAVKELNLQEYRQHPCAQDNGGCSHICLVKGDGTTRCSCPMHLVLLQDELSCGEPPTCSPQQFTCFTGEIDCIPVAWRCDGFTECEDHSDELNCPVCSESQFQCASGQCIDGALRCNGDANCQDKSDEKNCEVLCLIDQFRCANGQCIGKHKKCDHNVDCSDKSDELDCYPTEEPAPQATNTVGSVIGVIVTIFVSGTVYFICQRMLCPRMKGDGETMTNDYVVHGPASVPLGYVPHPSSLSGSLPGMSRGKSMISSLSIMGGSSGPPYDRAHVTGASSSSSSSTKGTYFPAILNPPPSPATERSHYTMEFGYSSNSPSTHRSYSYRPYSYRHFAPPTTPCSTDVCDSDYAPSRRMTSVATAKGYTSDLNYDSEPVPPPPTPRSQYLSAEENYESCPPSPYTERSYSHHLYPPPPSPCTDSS
# human VEGF (human), sequence (P15692 other isoform, or with tags, fused parts or gaps limits assumed): as the sequence (P15692 other isoform, or with tags, fused parts or gaps limits assumed) above
# mouse VEGF (mouse), sequence (Q00731 other isoform, or with tags, fused parts or gaps limits assumed): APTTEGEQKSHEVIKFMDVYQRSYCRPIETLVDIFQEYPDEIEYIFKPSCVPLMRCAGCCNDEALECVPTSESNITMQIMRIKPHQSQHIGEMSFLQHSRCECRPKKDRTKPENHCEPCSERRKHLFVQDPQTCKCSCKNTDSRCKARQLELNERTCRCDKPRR
# rat VEGF (rat), sequence (P16612 other isoform, or with tags, fused parts or gaps limits assumed): as the sequence (Q00731 other isoform, or with tags, fused parts or gaps limits assumed) above, with S10A, I14V, I75V counted along it
Substance,"Inhibitory Activity (IC50, nM) against hVEGF in cell-based assays [1] [nM]","Inhibitory activity (IC50, nM) against VEGF in cell-based assays [1] [nM]","Inhibitory activity (IC50, nM) against VEGF in cell-based assays [2] [nM]","Inhibitory activity (IC50, nM) against VEGF in cell-based assays [3] [nM]","Inhibitory activity (IC50, nM) against VEGF in cell-based assays [4] [nM]","Inhibitory activity (IC50, nM) against VEGF in cell-based assays [5] [nM]",IC50 [6] [nM],IC50 [7] [nM],"Inhibitory activity (IC50, nM) against VEGF in cell-based assays [8] [nM]","IC50, inhibition of Wnt1 signaling (luciferase reporter, HEK293S cells transfected by WNT1) [9] [nM]"
G6 anti-VEGF antibody,0.14,0.21,0.12,0.13,0.19,0.078,0.25,0.2,–,–
Lucentis (Fab),0.68,–,–,–,–,–,–,–,0.63,–
anti-LRP6 inhibitory antibody YW210.09,–,–,–,–,–,–,–,–,–,28
